Measurements reported in patent publication US20020055130A1, “Method and product for regulating apoptosis” (National Jewish Center for Immunology and Respiratory …, priority 1997, published 2002).

How the values were obtained:
[1] = system: MEKK1; test: SEK1 K→M phosphorylation by MEKK1 immunoprecipitates; type: biochemical, mouse; details: HEK293 lysates; 95-012 antibody
Method: MEKK1 was immunoprecipitated from cell lysates (200-500 μg) with the antibodies raised against specific sequences of MEKK1 or the 12CA5 antibody that recognizes the HA-tag sequence.

[2] = system: HEK293 cells; test: MEKK1 staining and TdT-mediated dUTP incorporation (DNA fragmentation) in transfected cells; type: cell-based, Human
Method: Human embryonal kidney 293 cells (HEK293) stably expressing the EBNA-1 protein from Epstein-Barr virus (Invitrogen) were grown in Dulbecco's modified Eagle's medium (DMEM) supplemented with 100 U/ml penicillin/streptomycin and containing 10% bovine calf serum (BCS). The cells were transfected using lipofectamine (Gibco).
Cells were grown on glass coverslips and transfected using lipofectamine. Two days after transfection, the medium was removed and the cells were fixed in 2% paraformaldehyde, 3% sucrose in phosphate buffered saline (PBS) for 10 min at room temperature. Following three washes with PBS, the cells were permeabilized for 10 min with 2% Triton-X100 in PBS. After three PBS washes, the cells were blocked with filtered cultured medium for 15 min. The coverslips were then incubated 1 hour in TdT reaction mix (200 mM potassium cacodylate, 25 mM Tris.HCl, pH 6.6, 250 μg/ml BSA, 5 mM CoCl2, 0.25 U/μl TdT [Boehringer], 10 μM biotin-dUTP [Boehringer]) at 37° C. in a humidifed atmosphere. […] The coverslips were then washed 6× over a 30 min period with PBS and incubated 1 hour at room temperature with a 1/1000 dilution in filtered culture medium of a donkey anti-rabbit, Cy^3-conjugated, antibody (Jackson Immunological) mixed with 5 μg/ml streptavidin conjugated with FITC (Jackson Immunological). The coverslips were washed 6× with PBS and incubated overnight in PBS before being mounted in 20 mg/ml o-phenyldiamine-diHCl (Sigma) in 0.1 M Tris pH 8.5, 90% glycerol. Images were taken using a Leica DMRXA microscope and analyzed with the SlideBook v2.0 software (Intelligent Imaging Innovations, Denver). The subcellular localization of endogenous MEKK1 observed with the anti-COOH-terminal MEKK1 antibody was identical to that observed with a second antibody recognizing the NH2-terminal portion of the MEKK1 protein.

[3] = system: MEKK1; test: Immunoblot of cleavage fragments of transfected HA-tagged MEKK1 in HEK293 cells; type: cell-based, Human; details: mutants transfected into HEK293 cells
Text: The full length cDNA encoding mouse MEKK1 was modified by addition of the HA-tag sequence ([…]) (SEQ ID NO: 12) at its NH2-terminus and inserted into the expression plasmid pCEP4 (Invitrogen), resulting in plasmid MEKK1.cp4. The MEKK1 sequences DTVD (amino acids 871-874) and DEVE (amino acids 857-860) in MEKK1.cp4 were substituted with alanines using a PCR strategy. The resulting plasmids were named DTVD_A.cp4 and DEVE_A.cp4. The cDNAs for CrmA (Pickup et al., 1986), p35 (Cartier et al., 1994), JNK1-APF (Dérijard et al., 1994) and JNK2-APF (Kallunki et al., 1994) were subcloned in pCEP4 in which the hygromycin resistance gene had been removed, resulting in plasmids CrmA.cp_, p35.cp_, JNK1_APF.cp and JNK2_APF.cp_. Plasmid pCDNA—3.cp4 is the result of the ligation of pCEP4 and pCDNA-3.
200-400 μg cell lysate protein was subjected to SDS-9% PAGE and transferred to nitrocellulose membranes. Blots were performed exactly as described (Widmann et al., 1995). To detect HA-tagged proteins, the mouse monoclonal antibody 12CA5 (Babco) was used as the primary antibody, followed by a rabbit anti-mouse antibody (Cappel). HRP-conjugated protein A at a 1/5000 dilution (Zymed) and ^125I-protein A at a 1/500 dilution (Dupont NEN) were then used for enhanced chemiluminescence (ECL) detection and for quantification using the phosphorimager. To detect MEKK1, 3 different ploclonal antisera were used as primary antibodies, followed by ECL detection using HRP-protein A (see above). These sera were generated by injecting rabbits with GST proteins fused with different portions of the MEKK1 protein.

[4] = system: c-Jun kinase (JNK); test: c-Jun kinase assay, transfected HEK293 cells; type: cell-based, Human; details: expression in HEK293 cells
Method: Lysis buffer (70 mM β-glycerophosphate, 1 mM EGTA, 100 μM Na3VO4, 1 mM DTT, 2 mM MgCl2, 0.5% Triton-X100, 20 μg/ml aprotinin) was added to cells 15-24 hours after transfection. Cellular debris was removed by centrifugation at 8,000xg for 5 min. Protein concentration was normalized by Bradford assay using BSA as standard.
c-Jun kinase (JNK) activity was measured using a solid phase kinase assay in which glutathione S-transferase-c-Jun(1-79) (GST-Jun) bound to glutathione-Sepharose 4B beads was used to affinity-purify JNK from cell lysates as described (Gardner and Johnson, 1996; Hibi et al., 1993). Alternatively, JNKI or JNK2 were immunoprecipitated with isoform specific antibodies (Santa Cruz Biotechnology) and GST-Jun used as substrate in an in vitro kinase assay (Hibi et al., 1993). Quantitation of the phosphorylation of GST-Jun was performed with a Phosphorlmager.

B1: DTVD→A: MEKK1 mutant with DTVD (amino acids 871-874) substituted with alanines (protein, UniProt P53349 2-1493, looked up, variant D871A T872A V873A D874A)
Mitogen-activated protein …: AAAAGDRASSSGFPGAAAASPEAGGGGGGGGALQGSGAPAAGAAGLLREPGSAGRERADWRRRQLRKVRSVELDQLPEQPLFLAAASPPCPSTSPSPEPADAAAGASRFQPAAGPPPPGAASRCGSHSAELAAARDSGARSPAGAEPPSAAAPSGREMENKETLKGLHKMEDRPEERMIREKLKATCMPAWKHEWLERRNRRGPVVVKPIPIKGDGSEVNNLAAEPQGEGQAGSAAPAPKGRRSPSPGSSPSGRSVKPESPGVRRKRVSPVPFQSGRITPPRRAPSPDGFSPYSPEETSRRVNKVMRARLYLLQQIGPNSFLIGGDSPDNKYRVFIGPQNCSCGRGAFCIHLLFVMLRVFQLEPSDPMLWRKTLKNFEVESLFQKYHSRRSSRIKAPSRNTIQKFVSRMSNSHTLSSSSTSTSSSENSIKDEEEQMCPICLLGMLDEESLTVCEDGCRNKLHHHCMSIWAEECRRNREPLICPLCRSKWRSHDFYSHELSSPVESPASLRAVQQPSSPQQPVAGSQRRNQESSFNLTHFGTQQIPSAYKDLAEPWIQVFGMELVGCLFSRNWNVREMALRRLSHDVSGALLLANGESTGNSGGGSGGSLSAGAASGSSQPSISGDVVEACCSVLSIVCADPVYKVYVAALKTLRAMLVYTPCHSLAERIKLQRLLRPVVDTILVKCADANSRTSQLSISTVLELCKGQAGELAVGREILKAGSIGVGGVDYVLSCILGNQAESNNWQELLGRLCLIDRLLLEFPAEFYPHIVSTDVSQAEPVEIRYKKLLSLLTFALQSIDNSHSMVGKLSRRIYLSSARMVTAVPAVFSKLVTMLNASGSTHFTRMRRRLMAIADEVEIAEVIQLGVEAAAAGHQDSLQAVAPTSCLENSSLEHTVHREKTGKGLSATRLSASSEDISDRLAGVSVGLPSSTTTEQPKPAVQTKGRPHSQCLNSSPLSHAQLMFPAPSAPCSSAPSVPDISKHRPQAFVPCKIPSASPQTQRKFSLQFQRNCSEHRDSDQLSPVFTQSRPPPSSNIHRPKPSRPVPGSTSKLGDATKSSMTLDLGSASRCDDSFGGGGNSGNAVIPSDETVFTPVEDKCRLDVNTELNSSIEDLLEASMPSSDTTVTFKSEVAVLSPEKAENDDTYKDDVNHNQKCKEKMEAEEEEALAIAMAMSASQDALPIVPQLQVENGEDIIIIQQDTPETLPGHTKAKQPYREDAEWLKGQQIGLGAFSSCYQAQDVGTGTLMAVKQVTYVRNTSSEQEEVVEALREEIRMMGHLNHPNIIRMLGATCEKSNYNLFIEWMAGGSVAHLLSKYGAFKESVVINYTEQLLRGLSYLHENQIIHRDVKGANLLIDSTGQRLRIADFGAAARLASKGTGAGEFQGQLLGTIAFMAPEVLRGQQYGRSCDVWSVGCAIIEMACAKPPWNAEKHSNHLALIFKIASATTAPSIPSHLSPGLRDVAVRCLELQPQDRPPSRELLKHPVFRTTW
SEK1 phosphorylation by COOH-terminal antibody immunoprecipitates [1]: reduced
reduction in number of expressing cells showing DNA fragmentation ([2]; compared to wild-type MEKK1 or the DEVE→A mutant): 65%
DNA fragmentation ([2]; expression in HEK293 cells): little DNA fragmentation
MEKK1 cleavage fragments generated [3]: only cleaved into fragments A and D
JNK activation [4]: activated JNK to the same level as wild type MEKK1
